Measurements reported in article PMC3877283, “Development of Novel Radiogallium-Labeled Bone Imaging Agents Using Oligo-Aspartic Acid Peptides as Carriers” (PLoS ONE, 2013).
Where two headings read alike, the source gives them in different places. Peptide text beside a SMILES is read from it. * marks the point of attachment. DOTA = O=C(O)CN1CCN(CC(=O)O)CCN(CC(=O)*)CCN(CC(=O)O)CC1

Experiment: Biodistribution experiments in normal mice
Type: in vivo, ddY mice
Conditions: for F/B ratio (Femur:blood ratio) / tissue uptake dose at 1 h / tissue uptake dose at 3 h / tissue uptake dose at 10 min: male ddY mice, no pretreatment, mean (SD) for four or five animals
Method: Experiments with animals were conducted in strict accordance with the Guidelines for the Care and Use of Laboratory Animals of Kanazawa University. The animal experimental protocols used were approved by the Committee on Animal Experimentation of Kanazawa University (Permit Number: AP-132633). Biodistribution experiments were performed after an intravenous administration of each diluted tracer solution (37 kBq/100 µL) to 6-week-old male ddY mice (27–32 g, Japan SLC, Inc., Hamamatsu, Japan). To investigate the effect of an excess amount of bisphosphonate on biodistribution, alendronate (20 mg/kg) was intravenously administered to mice 1 minute before the intravenous injection of ^67Ga-DOTA-(Asp)14 or ^67Ga-DOTA-Bn-SCN-HBP. Four to six mice each were sacrificed by decapitation at 10, 60, and 180 minutes post-injection. Tissues of interest were removed and weighed. Complete left femurs were isolated as representative bone samples, radioactivity was determined using an auto well gamma counter, and counts were corrected for background radiation and physical decay during counting.

Which results are given for `O=C(O)C[C@H](NC(=O)[C@H](CC(=O)O)NC(=O)[C@H](CC(=O)O)NC(=O)[C@H](CC(=O)O)NC(=O)[C@H](CC(=O)O)NC(=O)[C@H](CC(=O)O)NC(=O)[C@H](CC(=O)O)NC(=O)[C@H](CC(=O)O)NC(=O)[C@H](CC(=O)O)NC(=O)[C@H](CC(=O)O)NC(=O)[C@H](CC(=O)O)NC(=O)[C@H](CC(=O)O)NC(=O)[C@H](CC(=O)O)NC(=O)[C@H](CC(=O)O)NC(=O)CN1CCN(CC(=O)O)CCN(CC(=O)O)CCN(CC(=O)O)CC1)C(=O)O` [67Ga-DOTA-(Asp)14, metal not drawn] ({DOTA}-DDDDDDDDDDDDDD-OH)?
F/B ratio (Femur:blood ratio) (10 min after i.v. administration): 6.27 (0.66); F/B ratio (Femur:blood ratio) (60 min after i.v. administration): 185.54 (46.89); F/B ratio (Femur:blood ratio) (180 min after i.v. administration): 591.08 (221.41); tissue uptake dose at 1 h (male, ddY, mouse, in vivo, iv, 37 kBq/100 uL, total radioactivity, Blood, 60 min after i.v. administration, read-out: Radioactivity in Blood): 0.07 %ID; tissue uptake dose at 3 h (male, ddY, mouse, in vivo, iv, 37 kBq/100 uL, total radioactivity, Blood, 180 min after i.v. administration, read-out: Radioactivity in Blood): 0.03 %ID; tissue uptake dose at 10 min (male, ddY, mouse, in vivo, iv, 37 kBq/100 uL, total radioactivity, Bone (complete left femur), 10 min after i.v. administration, read-out: Radioactivity in Bone (Femur)): 10.1 %ID; tissue uptake dose at 1 h (male, ddY, mouse, in vivo, iv, 37 kBq/100 uL, total radioactivity, Bone (complete left femur), 60 min after i.v. administration, read-out: Radioactivity in Bone (Femur)): 12.8 %ID; tissue uptake dose at 3 h (male, ddY, mouse, in vivo, iv, 37 kBq/100 uL, total radioactivity, Bone (complete left femur), 180 min after i.v. administration, read-out: Radioactivity in Bone (Femur)): 13.3 %ID; tissue uptake dose at 10 min (male, ddY, mouse, in vivo, iv, 37 kBq/100 uL, total radioactivity, Brain, 10 min after i.v. administration, read-out: Radioactivity in Brain): 0.05 %ID; tissue uptake dose at 1 h (male, ddY, mouse, in vivo, iv, 37 kBq/100 uL, total radioactivity, Brain, 60 min after i.v. administration, read-out: Radioactivity in Brain): 0.01 %ID; tissue uptake dose at 3 h (male, ddY, mouse, in vivo, iv, 37 kBq/100 uL, total radioactivity, Brain, 180 min after i.v. administration, read-out: Radioactivity in Brain): 0.01 %ID; tissue uptake dose at 10 min (male, ddY, mouse, in vivo, iv, 37 kBq/100 uL, total radioactivity, Heart, 10 min after i.v. administration, read-out: Radioactivity in Heart): 0.62 %ID; tissue uptake dose at 1 h (male, ddY, mouse, in vivo, iv, 37 kBq/100 uL, total radioactivity, Heart, 60 min after i.v. administration, read-out: Radioactivity in Heart): 0.06 %ID; tissue uptake dose at 3 h (male, ddY, mouse, in vivo, iv, 37 kBq/100 uL, total radioactivity, Heart, 180 min after i.v. administration, read-out: Radioactivity in Heart): 0.03 %ID; tissue uptake dose at 10 min (male, ddY, mouse, in vivo, iv, 37 kBq/100 uL, total radioactivity, Kidney, 10 min after i.v. administration, read-out: Radioactivity in Kidney): 12.4 %ID; tissue uptake dose at 1 h (male, ddY, mouse, in vivo, iv, 37 kBq/100 uL, total radioactivity, Kidney, 60 min after i.v. administration, read-out: Radioactivity in Kidney): 0.99 %ID; tissue uptake dose at 3 h (male, ddY, mouse, in vivo, iv, 37 kBq/100 uL, total radioactivity, Kidney, 180 min after i.v. administration, read-out: Radioactivity in Kidney): 0.76 %ID; tissue uptake dose at 10 min (male, ddY, mouse, in vivo, iv, 37 kBq/100 uL, total radioactivity, Large-intestine, 10 min after i.v. administration, read-out: Radioactivity in Large-intestine): 0.3 %ID; tissue uptake dose at 1 h (male, ddY, mouse, in vivo, iv, 37 kBq/100 uL, total radioactivity, Large-intestine, 60 min after i.v. administration, read-out: Radioactivity in Large-intestine): 0.04 %ID; tissue uptake dose at 3 h (male, ddY, mouse, in vivo, iv, 37 kBq/100 uL, total radioactivity, Large-intestine, 180 min after i.v. administration, read-out: Radioactivity in Large-intestine): 0.15 %ID; tissue uptake dose at 10 min (male, ddY, mouse, in vivo, iv, 37 kBq/100 uL, total radioactivity, Liver, 10 min after i.v. administration, read-out: Radioactivity in Liver): 0.39 %ID; tissue uptake dose at 1 h (male, ddY, mouse, in vivo, iv, 37 kBq/100 uL, total radioactivity, Liver, 60 min after i.v. administration, read-out: Radioactivity in Liver): 0.05 %ID; tissue uptake dose at 3 h (male, ddY, mouse, in vivo, iv, 37 kBq/100 uL, total radioactivity, Liver, 180 min after i.v. administration, read-out: Radioactivity in Liver): 0.05 %ID; tissue uptake dose at 10 min (male, ddY, mouse, in vivo, iv, 37 kBq/100 uL, total radioactivity, Lung, 10 min after i.v. administration, read-out: Radioactivity in Lung): 1.19 %ID; tissue uptake dose at 1 h (male, ddY, mouse, in vivo, iv, 37 kBq/100 uL, total radioactivity, Lung, 60 min after i.v. administration, read-out: Radioactivity in Lung): 0.08 %ID; tissue uptake dose at 3 h (male, ddY, mouse, in vivo, iv, 37 kBq/100 uL, total radioactivity, Lung, 180 min after i.v. administration, read-out: Radioactivity in Lung): 0.03 %ID; tissue uptake dose at 10 min (male, ddY, mouse, in vivo, iv, 37 kBq/100 uL, total radioactivity, Muscle, 10 min after i.v. administration, read-out: Radioactivity in Muscle): 0.57 %ID; tissue uptake dose at 1 h (male, ddY, mouse, in vivo, iv, 37 kBq/100 uL, total radioactivity, Muscle, 60 min after i.v. administration, read-out: Radioactivity in Muscle): 0.08 %ID; tissue uptake dose at 3 h (male, ddY, mouse, in vivo, iv, 37 kBq/100 uL, total radioactivity, Muscle, 180 min after i.v. administration, read-out: Radioactivity in Muscle): 0.05 %ID; tissue uptake dose at 10 min (male, ddY, mouse, in vivo, iv, 37 kBq/100 uL, total radioactivity, Pancreas, 10 min after i.v. administration, read-out: Radioactivity in Pancreas): 0.5 %ID; tissue uptake dose at 1 h (male, ddY, mouse, in vivo, iv, 37 kBq/100 uL, total radioactivity, Pancreas, 60 min after i.v. administration, read-out: Radioactivity in Pancreas): 0.07 %ID; tissue uptake dose at 3 h (male, ddY, mouse, in vivo, iv, 37 kBq/100 uL, total radioactivity, Pancreas, 180 min after i.v. administration, read-out: Radioactivity in Pancreas): 0.03 %ID; tissue uptake dose at 10 min (male, ddY, mouse, in vivo, iv, 37 kBq/100 uL, total radioactivity, Small-intestine, 10 min after i.v. administration, read-out: Radioactivity in Small-intestine): 0.38 %ID; tissue uptake dose at 1 h (male, ddY, mouse, in vivo, iv, 37 kBq/100 uL, total radioactivity, Small-intestine, 60 min after i.v. administration, read-out: Radioactivity in Small-intestine): 0.08 %ID; tissue uptake dose at 3 h (male, ddY, mouse, in vivo, iv, 37 kBq/100 uL, total radioactivity, Small-intestine, 180 min after i.v. administration, read-out: Radioactivity in Small-intestine): 0.05 %ID; tissue uptake dose at 10 min (male, ddY, mouse, in vivo, iv, 37 kBq/100 uL, total radioactivity, Spleen, 10 min after i.v. administration, read-out: Radioactivity in Spleen): 0.42 %ID; tissue uptake dose at 1 h (male, ddY, mouse, in vivo, iv, 37 kBq/100 uL, total radioactivity, Spleen, 60 min after i.v. administration, read-out: Radioactivity in Spleen): 0.07 %ID; tissue uptake dose at 3 h (male, ddY, mouse, in vivo, iv, 37 kBq/100 uL, total radioactivity, Spleen, 180 min after i.v. administration, read-out: Radioactivity in Spleen): 0.03 %ID; tissue uptake dose at 10 min (male, ddY, mouse, in vivo, iv, 37 kBq/100 uL, total radioactivity, Stomach (footnote b), 10 min after i.v. administration, read-out: Radioactivity in Stomach): 0.24 %ID; tissue uptake dose at 1 h (male, ddY, mouse, in vivo, iv, 37 kBq/100 uL, total radioactivity, Stomach (footnote b), 60 min after i.v. administration, read-out: Radioactivity in Stomach): 0.1 %ID; tissue uptake dose at 3 h (male, ddY, mouse, in vivo, iv, 37 kBq/100 uL, total radioactivity, Stomach (footnote b), 180 min after i.v. administration, read-out: Radioactivity in Stomach): 0.02 %ID; tissue uptake at 1 h (male, ddY, mouse, in vivo, iv, 37 kBq/100 uL, total radioactivity, 60 min after injection, mice, read-out: accumulation in bone): 12.8 ± 1.7 %ID/g; tissue uptake dose at 10 min (mouse, in vivo, iv, 37 kBq/100 uL, total radioactivity, Blood, 10 min after i.v. administration (37 kBq/100 µL), gamma counter, read-out: Radioactivity in Blood): 1.61 %ID
